Results taken from patent publication US10766960 (dated 2020).

Key:
Experiment in all cases: SPR
[1] = biological target: T1, FcgRIIa R (human, UniProt P12318)
T1 chain: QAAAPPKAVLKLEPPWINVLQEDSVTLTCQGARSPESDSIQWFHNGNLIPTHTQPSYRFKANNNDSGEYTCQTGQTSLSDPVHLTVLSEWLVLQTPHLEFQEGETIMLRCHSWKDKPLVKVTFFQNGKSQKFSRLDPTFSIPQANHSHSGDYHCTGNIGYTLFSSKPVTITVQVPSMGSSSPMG

[2] = biological target: FcgRIIIa V (human, UniProt P08637)
[3] = biological target: T2, FcgRIIa H (human, UniProt P12318)
T2 chain: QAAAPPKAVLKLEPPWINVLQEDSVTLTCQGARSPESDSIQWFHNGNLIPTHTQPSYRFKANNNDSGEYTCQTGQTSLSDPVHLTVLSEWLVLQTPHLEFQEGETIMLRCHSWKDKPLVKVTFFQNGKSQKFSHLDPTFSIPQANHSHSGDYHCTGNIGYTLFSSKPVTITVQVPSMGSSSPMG

[4] = biological target: T3, FcgRIIb (human, UniProt P31994)
T3 chain: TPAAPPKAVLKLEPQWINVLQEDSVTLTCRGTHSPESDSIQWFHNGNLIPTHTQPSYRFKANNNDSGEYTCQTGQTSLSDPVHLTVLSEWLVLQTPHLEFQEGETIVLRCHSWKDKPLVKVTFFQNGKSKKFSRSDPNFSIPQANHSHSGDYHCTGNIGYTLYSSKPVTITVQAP

[5] = biological target: T4, FcgRIa (human, UniProt P12314)
T4 chain: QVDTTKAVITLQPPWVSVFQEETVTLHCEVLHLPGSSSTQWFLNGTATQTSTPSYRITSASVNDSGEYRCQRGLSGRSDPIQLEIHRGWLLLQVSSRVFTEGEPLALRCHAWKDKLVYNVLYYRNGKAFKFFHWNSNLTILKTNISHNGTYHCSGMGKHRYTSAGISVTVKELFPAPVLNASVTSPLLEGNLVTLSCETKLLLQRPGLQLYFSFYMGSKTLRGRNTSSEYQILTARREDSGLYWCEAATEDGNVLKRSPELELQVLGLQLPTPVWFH

[6] = biological target: FcgRIIIa F (human, UniProt P08637)
Sequence of FcgRIIIa F (P08637 17-208): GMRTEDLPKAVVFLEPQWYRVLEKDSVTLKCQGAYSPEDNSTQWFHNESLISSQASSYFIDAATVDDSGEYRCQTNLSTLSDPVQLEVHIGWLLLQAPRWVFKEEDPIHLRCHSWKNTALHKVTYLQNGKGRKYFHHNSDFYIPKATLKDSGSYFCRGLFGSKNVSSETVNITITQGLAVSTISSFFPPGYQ

Sequence of FcgRIIIa V (P08637 17-208 F176V): as the sequence (P08637 17-208) above, with F160V counted along it

Row | Binder | Kd [1] | Kd [2] | Kd [3] | Kd [4] | Kd [5] | Kd [6]
1 | H240-FA024/H240-FB001/L73-k0 (antibody) chain 1: QDQLVQSGAEVKKPGASVKVSCKASGFNIKDTYIQWVRQAPGQGLEWMGRIDPLRKQTKYREKFEGRVTITADTSTNTAYMELSSLRSEDTAVYYCVRSGREFDYWGQGTLVTVSSASTKGPSVFPLAPSSKSTSGGTAALGCLVKDYFPEPVTVSWNSGALTSGVHTFPAVLQSSGLYSLSSVVTVPSSSLGTKTYTCNVNHKPSNTKVDKKVEPKSCDKTHTCPPCPAPEYYWGPSVFLFPPKPKDTLMISRTPEVTCVVVDVSDEEPKVKFNWYVDGVEVHNAKTKPREEQYNATYRVVSVLTVLHQDWLNGKEYKCKVSNKALPAPIEKTISKAKGQPREPQVYTLPPSRKEKTKNQVSLTCLVKGFYPSDIAVEWESNGQPENNYKTTPPVLDSDGSFFLYSKLTVDKSRWQQGNVFSCSVMHEALHNRYTQKSLSLSP chain 2: QDQLVQSGAEVKKPGASVKVSCKASGFNIKDTYIQWVRQAPGQGLEWMGRIDPLRKQTKYREKFEGRVTITADTSTNTAYMELSSLRSEDTAVYYCVRSGREFDYWGQGTLVTVSSASTKGPSVFPLAPSSKSTSGGTAALGCLVKDYFPEPVTVSWNSGALTSGVHTFPAVLQSSGLYSLSSVVTVPSSSLGTQTYICNVNHKPSNTKVDKKVEPKSCDKTHTCPPCPAPELLGGPSVFLFPPKPKDTLMISRTPEVTCVVVDVSHEEPEVQFNWYVDGVEVHNAKTKPREEQYNSTYRVVSVLTVLHQDWLNGKEYKCKVSNDALPMPIEETISKAKGQPREPQVYTLPPSREEMTKNQVSLTCLVKGFYPSDIAVEWESNGQPENNYKTTPPVLDSDGSFFLYSKLTVDKSRWQQGNVFSCSVMHEALHNHYTQESLSLSP chain 3: DIQMTQSPSSLSASVGDRVTITCRASQDIHKYIAWYQQKPGQAPRLLIQYTSTLQPGVPSRFSGSGSGTDYTFTISSLQPEDIATYYCLQYEQLRTFGGGTKVEIKRTVAAPSVFIFPPSDEQLKSGTASVVCLLNNFYPREAKVQWKVDNALQSGNSQESVTEQDSKDSTYSLSSTLTLSKADYEKHKVYACEVTHQGLSSPVTKSFNRGEC | 370 nM | 1.9 nM | 110 nM | 2000 nM | 1.8 nM | 6.7 nM
2 | H240-FA024/H240-FB084/L73-k0 (antibody) chain 1: QDQLVQSGAEVKKPGASVKVSCKASGFNIKDTYIQWVRQAPGQGLEWMGRIDPLRKQTKYREKFEGRVTITADTSTNTAYMELSSLRSEDTAVYYCVRSGREFDYWGQGTLVTVSSASTKGPSVFPLAPSSKSTSGGTAALGCLVKDYFPEPVTVSWNSGALTSGVHTFPAVLQSSGLYSLSSVVTVPSSSLGTKTYTCNVNHKPSNTKVDKKVEPKSCDKTHTCPPCPAPEYYWGPSVFLFPPKPKDTLMISRTPEVTCVVVDVSDEEPKVKFNWYVDGVEVHNAKTKPREEQYNATYRVVSVLTVLHQDWLNGKEYKCKVSNKALPAPIEKTISKAKGQPREPQVYTLPPSRKEKTKNQVSLTCLVKGFYPSDIAVEWESNGQPENNYKTTPPVLDSDGSFFLYSKLTVDKSRWQQGNVFSCSVMHEALHNRYTQKSLSLSP chain 2: QDQLVQSGAEVKKPGASVKVSCKASGFNIKDTYIQWVRQAPGQGLEWMGRIDPLRKQTKYREKFEGRVTITADTSTNTAYMELSSLRSEDTAVYYCVRSGREFDYWGQGTLVTVSSASTKGPSVFPLAPSSKSTSESTAALGCLVEDYFPEPVTVSWNSGALTSGVHTFPAVLQSSGLYSLSSVVTVPSSNFGTQTYTCNVDHKPSNTKVDKTVEPKSCDKTHTCPPCPAPELLGGPSVFLFPPKPKDTLMISRTPEVTCVVVDVSHEEPEVQFNWYVDGVEVHNAETKPREEQYNSTYRVVSVLTVLHQDWLNGKEYKCKVSNDALPMPIEETISKAKGQPREPQVYTLPPSREEMTKNQVSLTCLVKGFYPSDIAVEWESEGQPENNYKTTPPVLDSDGSFFLYSKLTVDKSRWQQGNVFSCSVMHEALHNHYTQESLSLSP chain 3: DIQMTQSPSSLSASVGDRVTITCRASQDIHKYIAWYQQKPGQAPRLLIQYTSTLQPGVPSRFSGSGSGTDYTFTISSLQPEDIATYYCLQYEQLRTFGGGTKVEIKRTVAAPSVFIFPPSDEQLKSGTASVVCLLNNFYPREAKVQWKVDNALQSGNSQESVTEQDSKDSTYSLSSTLTLSKADYEKHKVYACEVTHQGLSSPVTKSFNRGEC | 250 nM | 1.2 nM | 79 nM | 1500 nM | 0.095 nM | 4.6 nM
3 | H240-FA030/H240-FB001/L73-k0 (antibody) chain 1: QDQLVQSGAEVKKPGASVKVSCKASGFNIKDTYIQWVRQAPGQGLEWMGRIDPLRKQTKYREKFEGRVTITADTSTNTAYMELSSLRSEDTAVYYCVRSGREFDYWGQGTLVTVSSASTKGPSVFPLAPSSKSTSGGTAALGCLVKDYFPEPVTVSWNSGALTSGVHTFPAVLQSSGLYSLSSVVTVPSSSLGTKTYTCNVNHKPSNTKVDKKVEPKSCDKTHTCPPCPAPEYYWGPSVFLFPPKPKDTLMISRTPEVTCVVVDVSDEEPKVKFNWYVDGVEVHNAKTKPREEQYNATYRVVSVLTVLHQDWLNGKEYKCKVSNKALPAPIEKTISKAKGQPREPQVYTLPPSRKEMTKNQVSLTCLVKGFYPSDIAVEWESNGQPENNYKTTPPVLDSDGSFFLYSKLTVDKSRWQQGNVFSCSVMHEALHNRYTQKSLSLSP chain 2: QDQLVQSGAEVKKPGASVKVSCKASGFNIKDTYIQWVRQAPGQGLEWMGRIDPLRKQTKYREKFEGRVTITADTSTNTAYMELSSLRSEDTAVYYCVRSGREFDYWGQGTLVTVSSASTKGPSVFPLAPSSKSTSGGTAALGCLVKDYFPEPVTVSWNSGALTSGVHTFPAVLQSSGLYSLSSVVTVPSSSLGTQTYICNVNHKPSNTKVDKKVEPKSCDKTHTCPPCPAPELLGGPSVFLFPPKPKDTLMISRTPEVTCVVVDVSHEEPEVQFNWYVDGVEVHNAKTKPREEQYNSTYRVVSVLTVLHQDWLNGKEYKCKVSNDALPMPIEETISKAKGQPREPQVYTLPPSREEMTKNQVSLTCLVKGFYPSDIAVEWESNGQPENNYKTTPPVLDSDGSFFLYSKLTVDKSRWQQGNVFSCSVMHEALHNHYTQESLSLSP chain 3: DIQMTQSPSSLSASVGDRVTITCRASQDIHKYIAWYQQKPGQAPRLLIQYTSTLQPGVPSRFSGSGSGTDYTFTISSLQPEDIATYYCLQYEQLRTFGGGTKVEIKRTVAAPSVFIFPPSDEQLKSGTASVVCLLNNFYPREAKVQWKVDNALQSGNSQESVTEQDSKDSTYSLSSTLTLSKADYEKHKVYACEVTHQGLSSPVTKSFNRGEC | 440 nM | 1.7 nM | 120 nM | 3300 nM | 0.036 nM | 6.4 nM
4 | H240-FA020/H240-FB083/L73-k0 (antibody) chain 1: QDQLVQSGAEVKKPGASVKVSCKASGFNIKDTYIQWVRQAPGQGLEWMGRIDPLRKQTKYREKFEGRVTITADTSTNTAYMELSSLRSEDTAVYYCVRSGREFDYWGQGTLVTVSSASTKGPSVFPLAPSSKSTSGGTAALGCLVKDYFPEPVTVSWNSGALTSGVHTFPAVLQSSGLYSLSSVVTVPSSSLGTKTYTCNVNHKPSNTKVDKKVEPKSCDKTHTCPPCPAPEYYWGPSVFLFPPKPKDTLMISRTPEVTCVVVDVSDEEPEVKFNWYVDGVEVHNAKTKPREEQYNATYRVVSVLTVLHQDWLNGKEYKCKVSNKALPAPIEKTISKAKGQPREPQVYTLPPSRKEKTKNQVSLTCLVKGFYPSDIAVEWESNGQPENNYKTTPPVLDSDGSFFLYSKLTVDKSRWQQGNVFSCSVMHEALHNRYTQKSLSLSP chain 2: QDQLVQSGAEVKKPGASVKVSCKASGFNIKDTYIQWVRQAPGQGLEWMGRIDPLRKQTKYREKFEGRVTITADTSTNTAYMELSSLRSEDTAVYYCVRSGREFDYWGQGTLVTVSSASTKGPSVFPLAPSSKSTSESTAALGCLVEDYFPEPVTVSWNSGALTSGVHTFPAVLQSSGLYSLSSVVTVPSSNFGTQTYTCNVDHKPSNTKVDKTVEPKSCDKTHTCPPCPAPELLGGPSVFLFPPKPKDTLMISRTPEVTCVVVDVSHEEPEVQFNWYVDGVEVHNAETKPREEQYNSTYRVVSVLTVLHQDWLNGKEYKCKVSNDALPMPIEETISKAKGQPREPQVYTLPPSREEMTKNQVSLTCLVKGFYPSDIAVEWESNGQPENNYKTTPPVLDSDGSFFLYSKLTVDKSRWQQGNVFSCSVMHEALHNHYTQESLSLSP chain 3: DIQMTQSPSSLSASVGDRVTITCRASQDIHKYIAWYQQKPGQAPRLLIQYTSTLQPGVPSRFSGSGSGTDYTFTISSLQPEDIATYYCLQYEQLRTFGGGTKVEIKRTVAAPSVFIFPPSDEQLKSGTASVVCLLNNFYPREAKVQWKVDNALQSGNSQESVTEQDSKDSTYSLSSTLTLSKADYEKHKVYACEVTHQGLSSPVTKSFNRGEC | 230 nM | 1.1 nM | 65 nM | 1000 nM | 0.12 nM | 3.4 nM
